In the data set the target is T1, Hfq (Bacillus subtilis, UniProt O31796 1-73).
T1 sequence: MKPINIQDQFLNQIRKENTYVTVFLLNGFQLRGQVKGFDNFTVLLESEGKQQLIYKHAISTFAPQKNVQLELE
The experiment in a line: EMSA; 10 mM Mg2+, 2.5 ng/ul yeast tRNA; 50 mM Hepes pH 7.5, 150 mM NaCl, 10 mM MgCl2, 2.5 ng/ul yeast tRNA, ~2 fmol RNA in 10 ul, 30 min at 25 C; 5% native TBE PAGE. The conditions noted are these: protein: recombinant; tags: His6 (pHisII vector); chain copies: 6; label: 32P (gamma-32P ATP). Background: In EMSA bound probe runs differently from free probe, usually more slowly.

B1: SR4 antitoxin RNA (structured_RNA)
RNA: GGGUAAUGAUACAAUUAUAUAAUUAUUUUUUGCAUUUUGUUUAAUUAAAUGCAAAGCUGCCCAUCAAAGGGCUUGCUCGUUGUCAAAUCUUAAAAUAAAAAGACCAGGGUGUUGGUAGCACCCUGGCUCUGUACAAGCGUAGGCCUAACCCUUCAGGUGUCCAAACUCAAGGGAAGGUCUAUUUUUU
In the case of B1, the binding result is “binds”.

The values are drawn from paper PMC3574147, “Association of RNAs with Bacillus subtilis Hfq”.
